Measurements: patent publication US20200223889A1, “Bicyclic Compounds Capable of Binding to Melanocortin 4 Receptor” (Novo Nordisk A/S, priority 2017, published 2020)
Positions of bridges follow the written chain, without caps; N, C: chain ends. Non-standard residues stand in square brackets, D forms with d. Hyp = O=C(O)[C@@H]1C[C@@H](O)CN1; Dab = NCC[C@H](N)C(=O)O; Aib = CC(C)(N)C(=O)O

Experiments:
[1] = target: human melanocortin 1 receptor (human), Q01726; experiment: cell-based or functional assay
Chain of human melanocortin 1 receptor (human), Q01726 (Q01726 whole entry): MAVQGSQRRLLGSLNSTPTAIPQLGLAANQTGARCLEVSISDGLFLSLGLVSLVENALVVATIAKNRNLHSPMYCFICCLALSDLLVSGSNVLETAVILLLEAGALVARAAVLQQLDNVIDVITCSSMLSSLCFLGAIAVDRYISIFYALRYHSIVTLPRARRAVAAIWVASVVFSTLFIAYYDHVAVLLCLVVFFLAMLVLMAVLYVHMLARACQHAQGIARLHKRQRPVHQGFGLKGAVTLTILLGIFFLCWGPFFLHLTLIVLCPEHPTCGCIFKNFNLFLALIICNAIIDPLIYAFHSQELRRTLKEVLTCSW

[2] = target: human melanocortin 4 receptor (human), P32245; experiment: cell-based or functional assay
Chain of human melanocortin 4 receptor (human), P32245 (P32245 whole entry): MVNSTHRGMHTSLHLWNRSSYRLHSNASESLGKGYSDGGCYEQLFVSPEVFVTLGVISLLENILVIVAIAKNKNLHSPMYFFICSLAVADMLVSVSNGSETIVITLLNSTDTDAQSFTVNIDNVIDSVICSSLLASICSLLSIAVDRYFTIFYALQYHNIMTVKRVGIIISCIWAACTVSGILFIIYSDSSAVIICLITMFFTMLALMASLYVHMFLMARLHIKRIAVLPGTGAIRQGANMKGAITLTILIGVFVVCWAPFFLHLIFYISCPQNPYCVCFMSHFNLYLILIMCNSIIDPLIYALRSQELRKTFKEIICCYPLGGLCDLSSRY

[3] = target: human melanocortin 4 receptor (human), P32245; experiment: competition with 125-NDP-α-MSH, BHK human MC4R membranes
[4] = target: human melanocortin 4 receptor (human) (UniProt P32245); experiment: as above
Chain of human melanocortin 4 receptor (human) (P32245 whole entry): as above

[5] = target: human melanocortin 4 receptor (human) (UniProt P32245); experiment: cell-based or functional assay

Binder | MC1R cAMP EC50 [1] [pM] | MC4R cAMP EC50 [2] [pM] | Ki [3] [pM] | Ki [4] [pM] | MC4R cAMP EC50 [5] [pM]
CAHFRWCRFFNAF (modifications not checked) [Chem. 13] | 6360 | 100 | 260 | – | –
CAHFRWCAHFRW (modifications not checked) [Chem. 10] | 4880 | – | – | – | –
CXHFXWCXHFXW (Aib 2, 8; D-Phe 4, 10; Cit 5, 11; disulphide Cys1-Cys7; head-to-tail amide Cys1-Trp12) [Chem. 41] | – | – | – | 5390 | 1340
cyclo(C[Aib][Hyp][dF]RWC[Aib][Hyp][dF]RW) (disulfide 1-7; SMILES CC1(C)NC(=O)[C@@H]2CSSC[C@H](NC(=O)[C@H](Cc3c[nH]c4ccccc34)NC(=O)[C@H](CCCNC(=N)N)NC(=O)[C@@H](Cc3ccccc3)NC(=O)[C@@H]3C[C@@H](O)CN3C1=O)C(=O)NC(C)(C)C(=O)N1C[C@H](O)C[C@H]1C(=O)N[C@H](Cc1ccccc1)C(=O)N[C@@H](CCCNC(=N)N)C(=O)N[C@@H](Cc1c[nH]c3ccccc13)C(=O)N2) [Chem. 38] | – | – | – | 5640 | 4220
CAHFRWCAKKKR (modifications not checked) [Chem. 59] | 160 | 4 | 10 | – | –
CAHFRWCAHFRW (modifications not checked) [Chem. 8] | 1760 | 20 | 80 | – | –
cyclo(CH[dF]RW[dA]CH[dF]RW[dA]) (disulfide 1-7; SMILES C[C@H]1NC(=O)[C@H](Cc2c[nH]c3ccccc23)NC(=O)[C@H](CCCNC(=N)N)NC(=O)[C@@H](Cc2ccccc2)NC(=O)[C@H](Cc2c[nH]cn2)NC(=O)[C@@H]2CSSC[C@H](NC1=O)C(=O)N[C@@H](Cc1c[nH]cn1)C(=O)N[C@H](Cc1ccccc1)C(=O)N[C@@H](CCCNC(=N)N)C(=O)N[C@@H](Cc1c[nH]c3ccccc13)C(=O)N[C@H](C)C(=O)N2) [Chem. 6] | – | – | – | 190 | 60
CAHFRWCAHFRW (modifications not checked) [Chem. 56] | 35300 | 440 | 1820 | – | –
CXHFXWCXHFXW (Aib 2, 8; D-Phe 4, 10; AGP 5, 11; disulphide Cys1-Cys7; head-to-tail amide Cys1-Trp12) [Chem. 43] | – | – | – | 2610 | 440
CAHFRWCRFFNA (modifications not checked) [Chem. 12] | 3970 | 70 | 280 | – | –
CAHFRWCAEEEW (modifications not checked) [Chem. 44] | 31900 | 1530 | 50800 | – | –
cyclo(C[dP]H[dF]RWC[dP]H[dF]RW) (disulfide 1-7; SMILES N=C(N)NCCC[C@@H]1NC(=O)[C@@H](Cc2ccccc2)NC(=O)[C@H](Cc2c[nH]cn2)NC(=O)[C@H]2CCCN2C(=O)[C@@H]2CSSC[C@H](NC(=O)[C@H](Cc3c[nH]c4ccccc34)NC1=O)C(=O)N1CCC[C@@H]1C(=O)N[C@@H](Cc1c[nH]cn1)C(=O)N[C@H](Cc1ccccc1)C(=O)N[C@@H](CCCNC(=N)N)C(=O)N[C@@H](Cc1c[nH]c3ccccc13)C(=O)N2) [Chem. 33] | – | – | – | 27800 | 19800
cyclo(C[dV]H[dF]RWC[dV]H[dF]RW) (disulfide 1-7; SMILES CC(C)[C@H]1NC(=O)[C@@H]2CSSC[C@H](NC(=O)[C@H](Cc3c[nH]c4ccccc34)NC(=O)[C@H](CCCNC(=N)N)NC(=O)[C@@H](Cc3ccccc3)NC(=O)[C@H](Cc3c[nH]cn3)NC1=O)C(=O)N[C@H](C(C)C)C(=O)N[C@@H](Cc1c[nH]cn1)C(=O)N[C@H](Cc1ccccc1)C(=O)N[C@@H](CCCNC(=N)N)C(=O)N[C@@H](Cc1c[nH]c3ccccc13)C(=O)N2) [Chem. 34] | – | – | – | 880 | 120
cyclo(C[Aib]H[dF][Dab]WC[Aib]H[dF][Dab]W) (disulfide 1-7; SMILES CC1(C)NC(=O)[C@@H]2CSSC[C@H](NC(=O)[C@H](Cc3c[nH]c4ccccc34)NC(=O)[C@H](CCN)NC(=O)[C@@H](Cc3ccccc3)NC(=O)[C@H](Cc3c[nH]cn3)NC1=O)C(=O)NC(C)(C)C(=O)N[C@@H](Cc1c[nH]cn1)C(=O)N[C@H](Cc1ccccc1)C(=O)N[C@@H](CCN)C(=O)N[C@@H](Cc1c[nH]c3ccccc13)C(=O)N2) [Chem. 46] | – | – | – | 7860 | 5650
CAHFRWCAAFAW (modifications not checked) [Chem. 11] | 2170 | 30 | 250 | – | –

Now from value to binder:

MC1R cAMP EC50 [1] [pM] | MC4R cAMP EC50 [2] [pM] | Ki [3] [pM] | Ki [4] [pM] | MC4R cAMP EC50 [5] [pM] | Binder
190 | 40 | 50 | – | – | CAHFRWCKKKR (modifications not checked) [Chem. 101]
1310 | 20 | 200 | – | – | CAHFRWCAAAAW (modifications not checked) [Chem. 88]
650 | 10 | 110 | – | – | CAHFRWCAAAAR (modifications not checked) [Chem. 90]
1390 | 40 | 170 | – | – | CAHFRWCAAAAW (modifications not checked) [Chem. 87]
– | – | – | 9600 | 14500 | cyclo(C[dK]H[dF]HWC[dK]H[dF]HW) (disulfide 1-7; SMILES NCCCC[C@H]1NC(=O)[C@@H]2CSSC[C@H](NC(=O)[C@H](Cc3c[nH]c4ccccc34)NC(=O)[C@H](Cc3c[nH]cn3)NC(=O)[C@@H](Cc3ccccc3)NC(=O)[C@H](Cc3c[nH]cn3)NC1=O)C(=O)N[C@H](CCCCN)C(=O)N[C@@H](Cc1c[nH]cn1)C(=O)N[C@H](Cc1ccccc1)C(=O)N[C@@H](Cc1c[nH]cn1)C(=O)N[C@@H](Cc1c[nH]c3ccccc13)C(=O)N2) [Chem. 86]
30200 | 190 | 1210 | – | – | CAHFRWCPPERW (modifications not checked) [Chem. 112]
8650 | 150 | 160 | – | – | CAHFRWCAYFKW (modifications not checked) [Chem. 80]
14300 | 490 | 10100 | – | – | CAHFRWCAEEAW (modifications not checked) [Chem. 102]
310 | 10 | 40 | – | – | CAHFRWCAHFRW (modifications not checked) [Chem. 111]
220 | 10 | 20 | – | – | CAHFRWCAKKKR (modifications not checked) [Chem. 85]
590 | 20 | 70 | – | – | CAHFRWCAAAAR (modifications not checked) [Chem. 89]
